Reference: patent publication US20230220589A1
Changes are numbered by the printed parent chain. Blank lines part the entries; values can stand above or below the binder they belong to.

What was measured:
[1] = target: M44-modified D NTAA target peptides; test: encoding assay; P2 M;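 note: fraction of recording tags encoded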
[2] = target: M44-modified S NTAA target peptides; test: encoding assay; P2 M
[3] = target: M44-modified G NTAA target peptides (M44-G-P2-peptide); test: encoding assay; P2 M;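 note: fraction of recording tags encoded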
[4] = target: M44-modified T NTAA target peptides; test: encoding assay; P2 Q;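 note: fraction of recording tags encoded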
[5] = target: M44-modified Y NTAA target peptides (M44-Y-P2-peptide); test: encoding assay; P2 Q;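 note: fraction of recording tags encoded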
[6] = target: M44-modified W NTAA target peptides; test: encoding assay; P2 Q;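 note: fraction of recording tags encoded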
[7] = target: M44-modified P NTAA target peptides; test: encoding assay; P2 Q;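 note: fraction of recording tags encoded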
[8] = target: M44-modified G NTAA target peptides (M44-G-P2-peptide); test: encoding assay; P2 Q;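 note: fraction of recording tags encoded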
[9] = target: M44-modified G NTAA target peptides (M44-G-P2-peptide); test: encoding assay; P2 G;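 note: fraction of recording tags encoded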
[10] = target: M44-modified A NTAA target peptides (M44-A-P2-peptide); test: Gini coefficient of P2 tolerance from multiplex encoding heatmap
[11] = target: M44-modified A NTAA target peptides (M44-A-P2-peptide); test: Gini coefficient of P1 selectivity from multiplex encoding heatmap
[12] = target: M44-modified N NTAA target peptides; test: encoding assay; P2 S
[13] = target: M44-modified E NTAA target peptides; test: encoding assay; P2 S;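 note: fraction of recording tags encoded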
[14] = target: M44-modified W NTAA target peptides; test: encoding assay; P2 S;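 note: fraction of recording tags encoded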
[15] = target: M44-modified D NTAA target peptides; test: encoding assay; P2 S;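 note: fraction of recording tags encoded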
[16] = target: M44-modified S NTAA target peptides; test: encoding assay; P2 S
[17] = target: M17-modified P NTAA target peptides; test: encoding assay; P2 M;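 note: fraction of recording tags encoded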
[18] = target: M17-modified S NTAA target peptides; test: encoding assay; P2 M;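 note: fraction of recording tags encoded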
[19] = target: M17-modified F NTAA target peptides; test: encoding assay; P2 M;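 note: fraction of recording tags encoded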
[20] = target: M17-modified I NTAA target peptides; test: encoding assay; P2 M;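 note: fraction of recording tags encoded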
[21] = target: M17-modified V NTAA target peptides; test: encoding assay; P2 Q;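 note: fraction of recording tags encoded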
[22] = target: M17-modified P NTAA target peptides; test: encoding assay; P2 Q;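 note: fraction of recording tags encoded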
[23] = target: M17-modified G NTAA target peptides; test: encoding assay; P2 Q;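 note: fraction of recording tags encoded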
[24] = target: M17-modified L NTAA target peptides; test: encoding assay; P2 Q;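 note: fraction of recording tags encoded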
[25] = target: M17-modified D NTAA target peptides; test: encoding assay; P2 Q;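 note: fraction of recording tags encoded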
[26] = target: M17-modified S NTAA target peptides; test: encoding assay; P2 Q;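 note: fraction of recording tags encoded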
[27] = target: M17-modified E NTAA target peptides; test: encoding assay; P2 Q;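 note: fraction of recording tags encoded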
[28] = target: M17-modified H NTAA target peptides; test: encoding assay; P2 Q;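 note: fraction of recording tags encoded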
[29] = target: M17-modified T NTAA target peptides; test: encoding assay; P2 Q;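 note: fraction of recording tags encoded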
[30] = target: M17-modified F NTAA target peptides; test: encoding assay; P2 Q;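 note: fraction of recording tags encoded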
[31] = target: M17-modified A NTAA target peptides; test: encoding assay; P2 Q;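 note: fraction of recording tags encoded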
[32] = target: M17-modified N NTAA target peptides; test: encoding assay; P2 Q;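 note: fraction of recording tags encoded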
[33] = target: M17-modified Y NTAA target peptides (M17-Y-P2-peptide); test: encoding assay; P2 Q;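 note: fraction of recording tags encoded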
[34] = target: M17-modified I NTAA target peptides; test: encoding assay; P2 Q;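 note: fraction of recording tags encoded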
[35] = target: M17-modified Q NTAA target peptides; test: encoding assay; P2 Q;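 note: fraction of recording tags encoded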
[36] = target: M17-modified W NTAA target peptides; test: encoding assay; P2 Q;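 note: fraction of recording tags encoded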
[37] = target: M17-modified V NTAA target peptides; test: encoding assay; P2 S;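 note: fraction of recording tags encoded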
[38] = target: M17-modified P NTAA target peptides; test: encoding assay; P2 S;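 note: fraction of recording tags encoded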
[39] = target: M17-modified G NTAA target peptides; test: encoding assay; P2 S;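 note: fraction of recording tags encoded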
[40] = target: M17-modified M NTAA target peptides; test: encoding assay; P2 S;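 note: fraction of recording tags encoded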
[41] = target: M17-modified L NTAA target peptides; test: encoding assay; P2 S;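 note: fraction of recording tags encoded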
[42] = target: M17-modified D NTAA target peptides; test: encoding assay; P2 S;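 note: fraction of recording tags encoded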
[43] = target: M17-modified S NTAA target peptides; test: encoding assay; P2 S;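 note: fraction of recording tags encoded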
[44] = target: M17-modified E NTAA target peptides; test: encoding assay; P2 S;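 note: fraction of recording tags encoded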
[45] = target: M17-modified H NTAA target peptides; test: encoding assay; P2 S;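 note: fraction of recording tags encoded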
[46] = target: M17-modified T NTAA target peptides; test: encoding assay; P2 S;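 note: fraction of recording tags encoded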
[47] = target: M17-modified F NTAA target peptides; test: encoding assay; P2 S;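 note: fraction of recording tags encoded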
[48] = target: M17-modified A NTAA target peptides; test: encoding assay; P2 S;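 note: fraction of recording tags encoded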
[49] = target: M17-modified N NTAA target peptides; test: encoding assay; P2 S;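 note: fraction of recording tags encoded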
[50] = target: M17-modified Y NTAA target peptides (M17-Y-P2-peptide); test: encoding assay; P2 S;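 note: fraction of recording tags encoded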
[51] = target: M17-modified I NTAA target peptides; test: encoding assay; P2 S;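 note: fraction of recording tags encoded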
[52] = target: M17-modified Q NTAA target peptides; test: encoding assay; P2 S;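 note: fraction of recording tags encoded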
[53] = target: M17-modified W NTAA target peptides; test: encoding assay; P2 G;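 note: fraction of recording tags encoded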
[54] = target: M17-modified S NTAA target peptides; test: encoding assay; P2 A;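 note: fraction of recording tags encoded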

B1: engineered M44-A binder (SEQ ID NO: 42) (designed binder, not shown: small tags and cut ends; large carriers)
chain: QVSVQPNFQQDKFLGRWFVAGLASNSSWDREKVAALSGAKMVVAPATDGGLNVTRTMLRKNQCETYTGLLQPAGSLGSYSWRSPHPGSTGSESVVETDYDQYALVYGQGSKGPGEDLRAAALWSRTQTPRAELKEKFTAFSKAQGFTEDTIVFLPQTDKCMTEQ
- encoding yield [1]: 0.02
- encoding yield [2]: 0.04
- encoding yield [3]: 0.04
- encoding yield [4]: 0.02
- encoding yield [5]: 0.02
- encoding yield [6]: 0.02
- encoding yield [7]: 0.01
- encoding yield [8]: 0.01
- encoding yield [9]: 0.01
- P2 score [10]: 0.376
- P1 score [11]: 0.31
- encoding yield [12]: 0.01
- encoding yield [13]: 0.01
- encoding yield [14]: 0.01
- encoding yield [15]: 0.02
- encoding yield [16]: 0.01

B2: engineered M17-Y binder (SEQ ID NO: 61) (designed binder, not shown: small tags and cut ends; large carriers)
chain: TVPDRSEIAGKWYVVALASNTEFYLREKDWVKSAMARISFLGEDELKVSSAVPSPNGCYKVERTWKKTSDDGEVYNSRAAKLKVEVLDTDYKSYAVIYATRVKDGRTDHQMILYSRSPEVSPAATAIFRKLAGERNYTDEMVAMLPRQEECTVDEV
- encoding yield [17]: 0.02
- encoding yield [18]: 0.01
- encoding yield [19]: 0.03
- encoding yield [20]: 0.06
- encoding yield [21]: 0.03
- encoding yield [22]: 0.01
- encoding yield [23]: 0.02
- encoding yield [24]: 0.03
- encoding yield [25]: 0.01
- encoding yield [26]: 0.03
- encoding yield [27]: 0.02
- encoding yield [28]: 0.04
- encoding yield [29]: 0.01
- encoding yield [30]: 0.04
- encoding yield [31]: 0.03
- encoding yield [32]: 0.03
- encoding yield [33]: 0.03
- encoding yield [34]: 0.02
- encoding yield [35]: 0.01
- encoding yield [36]: 0.01
- encoding yield [37]: 0.02
- encoding yield [38]: 0.01
- encoding yield [39]: 0.03
- encoding yield [40]: 0.04
- encoding yield [41]: 0.02
- encoding yield [42]: 0.01
- encoding yield [43]: 0.01
- encoding yield [44]: 0.01
- encoding yield [45]: 0.02
- encoding yield [46]: 0.02
- encoding yield [47]: 0.04
- encoding yield [48]: 0.02
- encoding yield [49]: 0.02
- encoding yield [50]: 0.1
- encoding yield [51]: 0.03
- encoding yield [52]: 0.01

The next lines start with the values.

- encoding yield [17]: 0.03
- encoding yield [18]: 0.01
- encoding yield [19]: 0.06
- encoding yield [20]: 0.1
- encoding yield [21]: 0.04
- encoding yield [22]: 0.02
- encoding yield [23]: 0.01
- encoding yield [24]: 0.04
- encoding yield [25]: 0.02
- encoding yield [26]: 0.03
- encoding yield [27]: 0.02
- encoding yield [28]: 0.03
- encoding yield [29]: 0.02
- encoding yield [30]: 0.04
- encoding yield [31]: 0.04
- encoding yield [32]: 0.04
- encoding yield [33]: 0.15
- encoding yield [34]: 0.03
- encoding yield [35]: 0.01
- encoding yield [36]: 0.02
- encoding yield [53]: 0.04
- encoding yield [54]: 0.01
- encoding yield [37]: 0.03
- encoding yield [38]: 0.02
- encoding yield [39]: 0.04
- encoding yield [40]: 0.04
- encoding yield [41]: 0.04
- encoding yield [42]: 0.02
- encoding yield [43]: 0.01
- encoding yield [44]: 0.01
- encoding yield [45]: 0.03
- encoding yield [46]: 0.04
- encoding yield [47]: 0.07
- encoding yield [48]: 0.02
- encoding yield [49]: 0.02
- encoding yield [50]: 0.22
- encoding yield [51]: 0.05
- encoding yield [52]: 0.02
B3: upgraded binder after additional maturation round (SEQ ID NO: 62) (designed binder, not shown: small tags and cut ends; large carriers)
chain: B2 chain with E27G, W30R, A36V, L41Q, G105R, E119D

- encoding yield [1]: 0.01
- encoding yield [2]: 0.01
- encoding yield [3]: 0.01
- encoding yield [4]: 0.02
- encoding yield [5]: 0.03
- encoding yield [6]: 0.02
- encoding yield [7]: 0.01
- encoding yield [8]: 0.01
- encoding yield [12]: 0.01
- encoding yield [13]: 0.01
- encoding yield [14]: 0.01
- encoding yield [15]: 0.02
- encoding yield [16]: 0.01
B4: engineered M44-L binder (SEQ ID NO: 31) (designed binder, not shown: small tags and cut ends; large carriers)
chain: QDSTQNLIPAPPLISVPLQPGFWTERFQGRWFLVGFAGNAVQKERQSRLTMQSLILELQEDNSYNITAINVRGQGCRYIISTLVPSSRPGQFTLGNIHSYPQIQSLDVQVADTDYDQFAMVFLQGTSENKQYFEVALAGRTKGLSDELKERFVSFAKSLGLKDNNIVFSVPTDQCIDN
